Values of other authors, collected in article PMC2921030.

Target: 4E-BP1 peptide (Homo sapiens) (UniProt Q13541)
UniProt Q13541, sequence (Q13541 2-118): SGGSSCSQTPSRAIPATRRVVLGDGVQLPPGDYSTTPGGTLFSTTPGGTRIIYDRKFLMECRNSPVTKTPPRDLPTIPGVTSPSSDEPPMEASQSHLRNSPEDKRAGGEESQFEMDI

Kd: < 50 nM
Substance: eIF4E (from UniProt P06730)
